Target: FcRI on U937 cells (human) (UniProt P12314)
Assay: unlabeled protein competing with the same 125I-labeled protein for binding to IFN-γ-treated U937 cells

FcRI on U937 cells (human), sequence (P12314 16-374): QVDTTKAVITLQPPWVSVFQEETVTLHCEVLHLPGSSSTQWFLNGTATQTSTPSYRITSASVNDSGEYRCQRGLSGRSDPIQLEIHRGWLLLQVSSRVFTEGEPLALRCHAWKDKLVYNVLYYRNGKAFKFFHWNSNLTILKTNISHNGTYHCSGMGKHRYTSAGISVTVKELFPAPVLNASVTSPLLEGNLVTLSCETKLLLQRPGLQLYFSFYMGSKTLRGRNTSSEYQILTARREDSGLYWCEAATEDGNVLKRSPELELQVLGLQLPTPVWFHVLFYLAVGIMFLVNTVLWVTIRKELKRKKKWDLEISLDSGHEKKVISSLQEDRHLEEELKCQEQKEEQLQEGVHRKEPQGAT

Substance	IC50 [nM]
hCTLA4-IgG1 (from UniProt P16410 37-161) (Fc fusion)	70
human IgG1 (antibody)	75

— patent US20050196402A1
